Test results as given in patent publication US20220089743A1 (Chugai, published 2022).

What was measured:
HLA-DP on Ba/F3 cells = target: T1, HLA-DP on Ba/F3 cells (human, UniProt P20036 29-222; P04440 30-225, limits assumed); test: FACS, Ba/F3 cells; raw MFI
T1 construct: whole, on cells; also called Ba/F3-HLA-DP

HLA-DQ6.3 on Ba/F3 cells = target: T2, HLA-DQ6.3 on Ba/F3 cells (human, UniProt P01920 33-230, limits assumed); test: FACS, Ba/F3 cells; raw MFI
T2 construct: whole, on cells; also called Ba/F3-HLA-DQ6.3
T2 MHC II alpha: not shown
T2 MHC II beta: not shown

HLA-DR on Ba/F3 cells = target: T3, HLA-DR on Ba/F3 cells (human, UniProt P01903 26-216; P79483 30-227, limits assumed); test: FACS, Ba/F3 cells; raw MFI
T3 construct: whole, on cells; also called Ba/F3-HLA-DR
T3 MHC II alpha: not shown
T3 MHC II beta: not shown

HLA-DQ5.1 on Ba/F3 cells = target: T4, HLA-DQ5.1 on Ba/F3 cells (human, limits assumed); test: FACS, Ba/F3 cells; raw MFI
T4 construct: whole, on cells; also called Ba/F3-HLA-DQ5.1
T4 MHC II alpha: not shown
T4 MHC II beta: not shown

HLA-DQ2.2 on Ba/F3 cells = target: T5, HLA-DQ2.2 on Ba/F3 cells (human, UniProt P01909 24-216, limits assumed); test: FACS, Ba/F3 cells; %MFI with IC17dK 0 and DQN0139bb 100
T5 construct: whole, on cells; also called Ba/F3-HLA-DQ2.2
T5 MHC II alpha: not shown
T5 MHC II beta: not shown

HLA-DQ8 on Ba/F3 cells = target: T6, HLA-DQ8 on Ba/F3 cells (human, UniProt P01909 24-216; P01920 33-230, limits assumed); test: as above
T6 construct: whole, on cells; also called Ba/F3-HLA-DQ8
T6 MHC II alpha: not shown
T6 MHC II beta: not shown

HLA-DQ2.5 on Ba/F3 cells = target: T7, HLA-DQ2.5 on Ba/F3 cells (human, UniProt P01909 24-216, limits assumed); test: as above
T7 construct: whole, on cells; MHC class II without a fused peptide; also called Ba/F3-HLA-DQ2.5

HLA-DQ7.5 on Ba/F3 cells = target: T8, HLA-DQ7.5 on Ba/F3 cells (human, UniProt P01909 24-216; P01920 33-230, limits assumed); test: as above
T8 construct: whole, on cells; also called Ba/F3-HLA-DQ7.5

HLA-DQ7.3 on Ba/F3 cells = target: T9, HLA-DQ7.3 on Ba/F3 cells (human, UniProt P01909 24-216; P01920 33-230, limits assumed); test: as above
T9 construct: whole, on cells; also called Ba/F3-HLA-DQ7.3
T9 MHC II alpha: not shown
T9 MHC II beta: not shown

[1] = target: HLA-DQ2.5 on IHW09023 cells loaded with gamma 1 gliadin peptide (human; wheat); test: cell-based or functional assay
[2] = target: HLA-DQ2.5 on IHW09023 cells loaded with omega1/2 gliadin peptide (human; wheat); test: cell-based or functional assay
[3] = target: HLA-DQ2.5 on IHW09023 cells loaded with gamma 4d gliadin peptide (human; wheat); test: cell-based or functional assay
[4] = target: HLA-DQ2.5 on IHW09023 cells loaded with gamma 2 gliadin peptide (human; wheat); test: cell-based or functional assay
[5] = target: HLA-DQ2.5 on IHW09023 cells loaded with 33 mer gliadin peptide (human; wheat); test: cell-based or functional assay
[6] = target: HLA-DQ2.5 on IHW09023 cells loaded with gamma 3 gliadin peptide (human; wheat); test: cell-based or functional assay
[7] = target: HLA-DQ2.5 on IHW09023 cells loaded with gamma 4a gliadin peptide (human; wheat); test: cell-based or functional assay
[8] = target: HLA-DQ2.5 on IHW09023 cells loaded with BC hordein peptide (human; barley); test: cell-based or functional assay

T1 sequence (P20036 29-222 limits assumed, chain 1 of 4, other chains not shown): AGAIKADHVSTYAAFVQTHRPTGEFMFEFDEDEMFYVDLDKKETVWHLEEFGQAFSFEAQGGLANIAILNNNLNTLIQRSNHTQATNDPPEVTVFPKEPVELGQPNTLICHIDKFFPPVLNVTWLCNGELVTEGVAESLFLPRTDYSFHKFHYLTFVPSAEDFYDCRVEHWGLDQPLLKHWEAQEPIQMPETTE
T1 sequence (P04440 30-225 limits assumed, chain 2 of 4, other chains not shown): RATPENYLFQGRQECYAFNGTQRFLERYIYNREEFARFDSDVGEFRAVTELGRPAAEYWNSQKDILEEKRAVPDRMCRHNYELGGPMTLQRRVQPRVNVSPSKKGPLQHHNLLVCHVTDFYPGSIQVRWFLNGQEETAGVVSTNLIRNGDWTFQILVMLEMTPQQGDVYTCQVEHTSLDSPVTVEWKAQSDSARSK

B1: DQN0344H1013/L0620//DQN0385H1353/L0681-F6 (bispecific antibody)
heavy 1: QVQLVESGGGVVQPGRSLRLSCAASGFTFSSAYWMVWVRQAPGQGLEWMGAVYGGSDTTYYAKWTEGRFTISRDTSKNTLYLQMNSLRAEDTAVYYCAREPLNYYYYGELNVWGQGTLVTVSSASTKGPSVFPLAPSSKSTSGGTAALGCLVKDYFPEPVTVSWNSGALTSGVHTFPAVLKSSGLYSLSSVVTVPSSSLGTQTYICNVNHKPSNTKVDKRVEPKSCDKTHTCPPCPAPELRRGPSVFLFPPKPKDTLMISRTPEVTCVVVDVSHEDPEVKFNWYVDGVEVHNAKTKPREEQYNSTYRVVSVLTVLHQDWLNGKEYKCKVSNKALPAPIEKTISKAKGQPREPQVYTLPPSREEMTKNQVSLTCLVKGFYPSDIAVEWESNGQPENNYKTTPPYLDSDGSFFLYSKLTVDKSRWQEGNVFSCSVLHEALHAHYTREELSLSP
light 1: DIQMTQSPSSLSASVGDRVTITCQATENIYSGLAWYQQKPGKAPKLLIYYVSTLAYGIPARFSGSGSGTDFTLTISSLEPEDFAVYYCQTYEDVSAVTFGQGTKVEIKRTVAAPSVFIFPPSDEQLKSGTAEVVCLLNNFYPREAKVQWKVDNALQSGNSEESVTEQDSKDSTYSLSSTLTLSKADYEKHKVYACEVTHQGLSSPVTKSFNRGEC
heavy 2: QVQLVESGGGVVQPGRSLRLSCAASGFTFAEWYFMSWVRQAPGKGLEWVASIDTGSGSIDYAEWVEGRFTISRDNSKNTLYLQMNSLRAEDTAVYYCARDIGIDYNFWGPGTLVTVSSASTKGPSVFPLAPSSKSTSGGTAALGCLVEDYFPEPVTVSWNSGALTSGVHTFPAVLESSGLYSLSSVVTVPSSSLGTKTYICNVNHKPSNTKVDKRVEPKSCDKTHTCPPCPAPELRRGPSVFLFPPKPKDTLMISRTPEVTCVVVDVSHEDPEVKFNWYVDGVEVHNAKTKPREEQYNSTYRVVSVLTVLHQDWLNGKEYKCKVSNKALPAPIEKTISKAKGQPREPQVYTLPPSRKEMTKNQVSLTCLVKGFYPSDIAVEWESNGQPENNYKTTPPYLDSDGSFFLYSKLTVDKSRWQQGNVFSCSVLHEALHAHYTRKELSLSP
light 2: DIQMTQSPSSLSASVGDRVTITCQTTQSISSYLNWYQQKPGQPPKLLIYYASTKAEGIPARFSGSGLGTDFTLTISSLEPEDFAVYYCHYGISKVSFGQGTKVEIKRTVAAPSVFIFPPSDEQLKSGTAKVVCLLNNFYPREAKVQWKVDNALQSGNSKESVTEQDSKDSTYSLSSTLTLSKADYEKHKVYACEVTHQGLSSPVTKSFNRGEC
B1: no binding (tested: 0.05 ug/mL) (HLA-DP on Ba/F3 cells); no binding (tested: 0.05 ug/mL) (HLA-DQ6.3 on Ba/F3 cells); no binding (tested: 0.05 ug/mL) (HLA-DR on Ba/F3 cells). B1: no binding (tested: 0.05 ug/mL) (HLA-DQ5.1 on Ba/F3 cells); no binding (tested: 0.05 ug/mL) (HLA-DQ2.2 on Ba/F3 cells); no binding (tested: 0.05 ug/mL) (HLA-DQ8 on Ba/F3 cells). B1: no binding (tested: 0.05 ug/mL) (HLA-DQ2.5 on Ba/F3 cells); no binding (tested: 0.05 ug/mL) (HLA-DQ7.5 on Ba/F3 cells); no binding (tested: 0.05 ug/mL) (HLA-DQ7.3 on Ba/F3 cells). For the same binder, the “IC50, γ1 gliadin TCR, 250 nM γ1 gliadin” value [1] was 0.56 ng/mL, the “IC50, ω1 gliadin TCR, 25 µM ω1/2 gliadin” value [2] was 1.17 ng/mL and the “IC50, ω2 gliadin TCR, 250 nM ω1/2 gliadin” value [2] was 0.17 ng/mL. The “IC50, γ4d gliadin TCR, 100 µM γ4d gliadin” value [3] was 2.06 ng/mL, the “IC50, γ2 gliadin TCR, 250 nM γ2 gliadin” value [4] was 100 ng/mL and the “IC50, α1a gliadin TCR, 250 nM 33mer gliadin” value [5] was 0.29 ng/mL. For the same binder, the “IC50, α1b gliadin TCR, 250 nM 33mer gliadin” value [5] was 1.13 ng/mL, the “IC50, α2 gliadin TCR, 250 nM 33mer gliadin” value [5] was 0.34 ng/mL and the “IC50, γ3 gliadin TCR, 100 µM γ3 gliadin” value [6] was 2.29 ng/mL. For the same binder, the “IC50, γ4a gliadin TCR, 25 µM γ4a gliadin” value [7] was 1250 ng/mL and the “IC50, BC hordein TCR, 250 nM BC hordein” value [8] was 8.78 ng/mL.
